Patent US20140342037A1, “NOVEL PREBIOTICS” (DSM IP ASSETS B.V., priority 2007, published 2014)

Tests used:
[1] = cited from earlier work
[2] = Proteolytic (endo-protease) activity on substrates ZAAXpNA; format: biochemical; conditions: purified enzyme preparation
[3] = test system: κ-casein in milk and GMP-protein in whey; experiment: Liberation of free sialic acid from milk and whey by sialidase (RP-HPLC, DMB labelling); format: biochemical; conditions: milk and whey incubated with sialidase ZJW 0.4 U/ml at room temperature (20-21° C.)
Excerpt: Free sialic acid can be analyzed by means of reverse-phase HPLC, using fluorescence detection with excitation at 310 nm and emission 448 nm after labelling with DMB compound. This method was recently described in literature (M. J. Martin et al Anal. Bional. Chem., 2007, 387, 2943-29-49) and allowed fast and accurate determination of free sialic contents in samples.
Milk was reconstituted by using NILAC low heat skim milk powder (NIZO, The Netherlands); whey was obtained from a local cheddar making facility. The milk and whey samples were treated as follows: milk and whey was incubated separately with sialidase ZJW (0.4 U/ml) at room temperature (20-21° C.) and the reaction was terminated at different moments of time by heating the samples in water bath at 95° C. for 5 minutes. A series of several sialidase ZJW concentrations and incubation times were performed. The samples used for HPLC analysis need to be free from proteins. Therefore, samples were filtered with a Nanosep ultra filtration Eppendorff (10 KD) using centrifugation for 15 minutes at 14000 g. After centrifugation, the free protein supernatant was collected and diluted 100 times with milliQ water in order to measure the sialic acid in a proper range of concentrations (measuring range using RP HPLC method is 5 fmol-5 nmol of sialic acid). […]

free sialic acid levels (concentration) ([3]; after 4 hours)	levels of free sialic acid ([3]; after 20 hours of incubation) [mg/L]	Molecule	pKa [1]	proteolytic activity on a series of substrates ZAAXpNA [2]
		CC(=O)N[C@H]1[C@H]([C@H](O)[C@H](O)CO)OC(O)(C(=O)O)C[C@@H]1O (stereo partly shown) [Sialic acids, N-acetylneuraminic acid]	around 2.2	
approximately 220 mg/L	250	sialidase ZJW: secreted fungal sialidase from Penicillium chrysogenum (SEQ ID NO: 3), overexpressed in Aspergillus niger (protein, listed as Penicillium chrysogenum) MLSSLMYLARECSILRAISLCAILAVATPAASASVTAKHTLATNGKGLFPQYRIVALASLGNGVLLASYDGRPDGGDSPSPNSILQRRSTDGGKTWGNPTYIARGQPASSTLQQYGFSDPSYVVDSGTGKVFNFHVFSKNQGFLNSEIGNDDTDLNIVSAEVSVSTDGGLSWTTDPDHESSLPPVASADVANVGGITGMFASSGEGIQLKYGKHAGRLVQQFLGKVIQSDGSKVSQAYSVYSDDGGAIWKMGKVIGTGMDENKVVELSNGNLMLNSRPSDGSGYRKVATSTDGGETWSTPASETQLPDPGNNGAITRMYPDAAHGSANAKILLFTNANSKTSRSNGTIRYSCDDGKTWSSGAVFQSGSMSYSTVTALGDDRFGIFYEGDSNDLVYIEVSKDFIGVSC		does not show proteolytic activity
